Target: biotinylated H5 (A/Vietnam/1203/2004) HA polypeptide (influenza virus A/Vietnam/1203/2004, UniProt Q8QPL1 17-531)

B1: exemplary antibody (VH-1 combined with VL-1; Table 4) (antibody, V domains shown)
VH: EVQLLESGGGLVKPGQSLKLSCAASGFTFTSYGMHWVRQPPGKGLEWVAVISYDGSYKYYADSVQGRFTISRDNSKNTLYLQMNSLRAEDTAVYYCAKDSELRSLLYFEWLSQGYFNPWGAGTTLTVSS
VL: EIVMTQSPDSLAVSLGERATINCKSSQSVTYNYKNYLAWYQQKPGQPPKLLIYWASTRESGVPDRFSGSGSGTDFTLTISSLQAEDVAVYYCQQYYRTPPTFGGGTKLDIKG
notes: also called exemplary influenza antibody
Kd: 0.03 nM
koff: 7.38e-06 s⁻¹
kon: 247000 M⁻¹ s⁻¹

Reference: US20130302348A1 (MIT, published 2013)
